Measured values from US9993440.

How the values were obtained:
[1] = test system: T1, plasmin-cleavable crosslinker KNRVK (bisacryloylated Lys-Asn-Arg-Val-Lys)
T1 sequence: KNRVK

[2] = test system: T2, MMP-cleavable crosslinker KLGPAK (Lys-Leu-Gly-Pro-Ala-Lys)
T2 sequence: KLGPAK

Sequence of plasmin (P00747 20-580): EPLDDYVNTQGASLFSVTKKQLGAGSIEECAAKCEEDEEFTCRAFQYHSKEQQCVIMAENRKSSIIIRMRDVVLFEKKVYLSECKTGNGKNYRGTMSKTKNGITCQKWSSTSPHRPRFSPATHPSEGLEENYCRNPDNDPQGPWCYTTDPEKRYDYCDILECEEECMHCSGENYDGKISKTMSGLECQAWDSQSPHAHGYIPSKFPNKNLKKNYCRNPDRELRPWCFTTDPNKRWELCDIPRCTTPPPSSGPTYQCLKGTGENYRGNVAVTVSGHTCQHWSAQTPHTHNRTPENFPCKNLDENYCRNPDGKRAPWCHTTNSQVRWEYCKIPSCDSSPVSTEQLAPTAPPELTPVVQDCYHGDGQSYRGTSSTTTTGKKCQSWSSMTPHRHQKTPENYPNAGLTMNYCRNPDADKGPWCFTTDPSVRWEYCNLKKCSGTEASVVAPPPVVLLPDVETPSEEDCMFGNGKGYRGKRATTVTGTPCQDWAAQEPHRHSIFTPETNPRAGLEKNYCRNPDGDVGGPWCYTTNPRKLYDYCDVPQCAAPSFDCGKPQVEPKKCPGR
Sequence of plasmin (P00747 581-810): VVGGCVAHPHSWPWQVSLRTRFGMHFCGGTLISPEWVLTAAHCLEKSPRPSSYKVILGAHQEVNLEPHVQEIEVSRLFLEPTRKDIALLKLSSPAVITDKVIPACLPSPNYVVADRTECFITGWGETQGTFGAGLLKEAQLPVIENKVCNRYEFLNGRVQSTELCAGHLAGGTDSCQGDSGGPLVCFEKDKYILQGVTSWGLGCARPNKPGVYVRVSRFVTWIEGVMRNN

Substance | release of VEGF from de-nVEGFplasmin (100%-peptide crosslinker) (ELISA) [1] | degradation of the polymer shells of nBSALGPA (DLS) [2] | release of BSA from nBSANRV (SDS-PAGE, 30 min) [1] | release of BSA from nBSALGPA (SDS-PAGE, 30 min) [2] | VEGF released from nVEGF formed with 100% degradable crosslinker (ELISA, with plasmin) [1] | release percentage of VEGF from de-nVEGFplasmin (100%-peptide crosslinker) (ELISA) [1]
trypsin | only extended periods of incubation with trypsin and collagenase IV had releases of VEGF |  |  |  |  | 
collagenase (a bacterial equivalent of MMP) |  | Exposing nBSALGPA to collagenase results in specific degradation of the polymer shells | nBSANRV without exposure to plasmin (line 2) or after exposure to collagenase (line 4) does not show any well-defined band |  |  | 
plasmin |  |  | does exhibit a well-defined band (line 3) similar to that of native BSA upon exposure to plasmin | plasmin is incapable of triggering release of BSA from MMP-specific nBSALGPA | released 95% of the VEGF used to form the nanocapsules | plasmin-incubated nVEGF showed about 60% release percentage
